From patent US8252338B2, “Synthetic LDL as targeted drug delivery vehicle” (The Regents of the University of California, priority 2005, dated 2012)

Legend:
HeLa cells = experiment: Cell killing by MTT assay, HeLa cells; format: cell-based, human; settings: concentrations up to 50 μM
Procedure: (§1) sLDL-PO was added to HeLa cells as shown in FIG. 16 and to SF-767 glioblastoma multiforme tumor cells (shown in FIG. 17) at concentrations between 0.05 and 50 μM and cell killing was determined by the MTT assay.

SF-767 cells = experiment: Cell killing by MTT assay, SF-767 cells; format: cell-based, human; settings: concentrations up to 10 μM
Procedure: as §1
Cells were grown as in Example 3.

[1] = Phospholipid binding of peptides, PC-cholate micelles, cholate dialysis; format: physicochemical; settings: overnight incubation, dialysis (cutoff 10,000 MW)
Procedure: The ability of the peptides to bind phospholipids was tested first. Phospholipid binding was used as a rapid screen for a peptide's ability to bind to the surface of a synthetic LDL-like nanoparticle. To make phospholipid complexes with peptides, egg yolk phosphatidylcholine (PC) and the cholate dialysis method were used similarly to what was previously employed to make synthetic nascent HDL particles (Segrest, J. P. et al., J. Lipid Res 33:141-166 (1992)). The PC-cholate micelles were incubated with the peptide overnight and then extensively dialyzed (dialysis membrane cutoff, 10,000 MW) to remove cholate and unbound peptide. The percent bound peptide, i.e., peptide that remains associated with the lipid micelles, was determined for each peptide and was 8%, 15% and 33%, for B-peptide, 11-A chimera and 18-A chimera, respectively. The B-peptide had poor lipid binding ability while the 11-mer peptide has low lipid binding compared to the 18-A chimera.

[2] = Peptide association with lipid microemulsion after dialysis; format: physicochemical; settings: 1.27 mg/ml peptide; PL:TO:CO 3:2:1; after extensive dialysis against Tris-saline buffer
Procedure: The 18-A chimera was utilized for making core-containing synthetic LDL. The procedure reported by Baille et al. (Baillie, G. et al., J Lipid Res 43:69-73 (2002)) was used with modifications. Microemulsions were formed using egg yolk phospholipid (PL), triolein (TO) and cholesteryl olein (CO) (mole ratio of 3:2:1) and 20 μM butylhydroxytoluene (BHT); the microemulsions were extruded through an Avanti miniextruder first using 100 nm polycarbonate filters followed by 30 nm polycarbonate filters. The lipid emulsions were incubated with 1.27 mg/ml 18-A chimera and lipid association determined after extensive dialysis against Tris-saline buffer to remove uncomplexed peptide. Approximately 85% of the added synthetic peptide remained associated with the lipid emulsions.
Characterization: Composition of particles was determined using the Markwell modification of the Lowry protein assay and enzymatic colorimetric assays for PL, TO and CO (Wako Kits). Size was determined by column chromatography using a Superose 6 fast protein liquid chromatography (FPLC) column. Samples were run at a flow rate of 0.5 mL/min and absorbance read at 280 nm. Referring now to FIG. 4, the composition of the synthetic LDL was characterized as 32% peptide, 68% lipid. 82%±9% of peptide (n=11) remained bound after dialysis. […]

[3] = Density distribution of lipidated 18-A chimera by sequential ultracentrifugation; format: physicochemical
Procedure: Studies were carried out to determine (1) whether the synthetic LDL represent a single population of particles and (2) whether the LDLR binding domain remains accessible after the peptide is associated with the lipid. To determine what types of synthetic LDL particles were generated, the lipidated 18-A chimera was subjected to sequential ultracentrifugation at density (d) 1.063 g/ml to isolate particles equivalent to, or less dense than, native LDL. Subsequently the solution was adjusted to d 1.21 g/ml to isolate particles in the d 1.063-1.21 g/ml range and those in the d>1.21 g/ml range. The latter particles are considered lipid-poor complexes while the d 1.063-1.21 particles are in the size and density range of high density lipoproteins (HDL). […] This was an unexpected finding but is very encouraging since smaller sized complexes will be better able to diffuse through the tumor mass than larger particles. The formation of small high density complexes is reproducible since it occurred with two separate batches of synthetic 18-A chimera complexes.
To determine the distribution of lipid complexes in various density classes, sequential ultracentrifugation techniques were employed (Lindgren, F. T. et al., In Blood Lipids and Lipoproteins: Quantification, Composition and Metabolism (Nelson, G. J., ed.) pp. 181-274, John Wiley, New York (1972)); this preparative procedure is routinely used in our laboratory and is the classical method for isolation of LDL and other lipoproteins. The first centrifugation was performed at d 1.006 g/ml to isolate large lipid complexes with little peptide; the second spin was done at 1.006-1.063 g/ml to isolate particles in the LDL.size and density range; the third spin at d 1.063-1.21 g/ml isolates particles in the HDL size and density range. The d>1.21 g/ml fraction was isolated to assess how much of the peptide is in the lipid-poor form. All ultracentrifugal isolations use the Beckman TL100 ultracentrifuge for rapid isolations (all fractions can be obtained within 24 hr). […]

## CCCCCCCC/C=C\CCCCCCCC(=O)O[C@@H](C(=O)O[C@H]1C[C@@]2(O)[C@@H](OC(=O)c3ccccc3)[C@@H]3[C@]4(OC(C)=O)CO[C@@H]4C[C@H](O)[C@@]3(C)C(=O)[C@H](OC(C)=O)C(=C1C)C2(C)C)[C@@H](NC(=O)c1ccccc1)c1ccccc1 [Paclitaxel oleate]
PC:TO:CO:PO 3:2:1:0.5, centrifuged and dialyzed
  initial PO added remained bound to the microemulsion after processing: 48±3%
Equimolar amounts added to initial lipid mixture (FIG. 14A)
  increase in incorporation into microemulsion as compared to paclitaxel: 4-5 fold
Varying PO in the initial lipid mixture (FIG. 13)
  initial PO concentration at which incorporation appears to saturate: around 0.33 mg/mL
HeLa cells
  HeLa cell killing: ineffective
SF-767 cells
  SF-767 cell killing: ineffective

## DWLKAFYDKVAEKLKEAFRLTRKRGLKLA [18-A chimera]
[1]
  percent bound peptide (peptide that remains associated with the lipid micelles): 33%
[2]
  added synthetic peptide remaining associated with the lipid emulsions: Approximately 85%
[3]; d 1.063-1.21 g/ml (size and density range of HDL, small lipid particles)
  density distribution (percent) of 18-A chimera: 58%
[3]; d < 1.063 g/ml
  density distribution (percent) of 18-A chimera: 13%
[3]; d > 1.21 g/ml (lipid-poor)
  density distribution (percent) of 18-A chimera: 29%

## PALEDLRQGLLPRLTRKRGLKL [11-A chimera]
[1]
  percent bound peptide (peptide that remains associated with the lipid micelles): 15%

## YKLEGTTRLTRKRGLKLATALS [B-peptide, reference compound]
[1]
  percent bound peptide (peptide that remains associated with the lipid micelles): 8%
